Data as given in EP4669671A1 (dated 2025).

T1: human IL2RA expressed on CHO-S cells (CHO-S-hIL2RA cells) (human, UniProt P01589 22-272)
T1 sequence: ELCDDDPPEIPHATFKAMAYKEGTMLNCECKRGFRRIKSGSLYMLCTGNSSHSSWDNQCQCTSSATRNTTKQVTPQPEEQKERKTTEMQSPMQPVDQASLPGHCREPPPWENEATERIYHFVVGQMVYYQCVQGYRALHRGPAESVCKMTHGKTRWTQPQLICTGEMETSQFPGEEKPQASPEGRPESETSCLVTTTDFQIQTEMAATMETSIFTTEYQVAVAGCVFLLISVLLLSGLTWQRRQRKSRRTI

T2: monkey (Macaca fascicularis) IL2RA expressed on CHO-S cells (CHO-S-fasIL2RA cells) (monkey (Macaca fascicularis), UniProt Q5MNY4 22-272)
T2 construct: also called monkey IL2RA
T2 chain: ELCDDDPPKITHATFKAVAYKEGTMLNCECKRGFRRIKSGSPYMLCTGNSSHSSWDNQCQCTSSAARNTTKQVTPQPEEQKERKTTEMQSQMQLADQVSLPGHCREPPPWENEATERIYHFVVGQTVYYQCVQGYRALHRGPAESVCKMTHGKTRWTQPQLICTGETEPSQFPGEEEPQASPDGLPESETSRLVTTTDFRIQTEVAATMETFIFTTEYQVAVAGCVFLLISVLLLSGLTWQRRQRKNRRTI

T3: His-tagged human IL2RA protein (ACROBiosystems Inc., Cat#: ILA-H52H9) (human, UniProt P01589 22-213, limits assumed)
T3 construct: Bought protein; also called hIL2RA-his; not shown: His tag
T3 sequence: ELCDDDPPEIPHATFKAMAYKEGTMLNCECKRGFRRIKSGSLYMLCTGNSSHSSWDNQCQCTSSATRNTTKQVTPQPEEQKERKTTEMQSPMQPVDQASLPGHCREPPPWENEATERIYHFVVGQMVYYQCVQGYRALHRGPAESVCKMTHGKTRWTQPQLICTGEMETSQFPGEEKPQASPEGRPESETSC


Legend:
[1] = biological target: T1, human IL2RA expressed on CHO-S cells …; test: flow cytometry on CHO-S-hIL2RA cells
[2] = biological target: T2, monkey (Macaca fascicularis) IL2RA …; test: flow cytometry on CHO-S-fasIL2RA cells
[3] = biological target: T3, His-tagged human IL2RA protein …; test: SPR (Biacore 8K), antibody captured on Protein A chip, His-tagged IL2RA as analyte

Row | Binder | binding result [1] | binding result [2] | binding result [3]
1 | anti-IL2RA antibody 11C12 (antibody, V domains shown) VH: QVQLVQSGGGLVQPGGSLRLSCSASGLTFSSYGMHWVRQAPGKGLDYVSGITNNGGRTEYADSVKGRFTISRDNSKNTLYLQMSSLRTEDTAVYYCVKEDWNGQYYYYAMDVWGQGTTVTVSS VL: not shown | binds | binds | binds
2 | anti-IL2RA antibody 7B5 (antibody, V domains shown) VH: EVQLQQWGAGLLKPSETLSLTCAVYGGSFSGYYWNWIRQPPGKGLEWIGESDHSGSTHFNPSLKSRVTISLDTSKNQFSLKLNSVTAADTAVYFCARAPDYGDFDHWGQGILVTVSS VL: DIQMTQSPDSLAVSLGERATINCRSSQSVLHSSTNKRYLAWYQQKPRQPPKLLIYWTSTRESGVPDRFSGSGSGTDFTLTISSLQAEDVAVYFCQQYYSTPYTFGQGTKLEIK | binds | binds | binds
3 | anti-IL2RA antibody 11D2 (antibody, V domains shown) VH: QVQLVQSGGGVVQPGRSLRLSCAASGFTFTNYAIHWVRQAPGKGLEWVAVIWSDGDNKYYADSVKGRFTISRDNSKNTLYLQMNSLRAEDTAVYYCARTPWYCTSTNCYTGYYYYGMDVWGQGTTVTVSS VL: not shown | binds | binds | binds

Further lines, results first:

Row | binding result [1] | binding result [2] | binding result [3] | Binder
4 | binds | binds | binds | anti-IL2RA antibody 5D9 (antibody, V domains shown, Variable regions were cloned into a vector with the human IgG constant region; also called 5D9-IgG1) VH: EVQLVESGGGLVQPGGSLRLSCAASGFTVSSNYMSWVRQTPGKGLELVSFIYSGGITSYADSVRGRFTISRDNSKNTLYLQMNSLRAEDTAVYYCARDDYSNYFDYWGQGTLVTVSS VL: DIQMTQSPSSVSASVGDRVTITCRASQGISNWLAWYQQKPGKAPKLLIFAASSLQSGVPSRFSGSGSGTDFTLTISSLQPEDFATYYCQQAKSFPITFGQGTRLEIK
5 | binds | binds | binds | anti-IL2RA antibody 11C3 (antibody, V domains shown) VH: QVQLVQSGAEVKKPGASVKVSCKASGYTFNSYYIHWVRQAPGQGLEWLGIINPTGGRTIYAQKFQGRVTMTRDTSTTTVDMELSSLRSEDTAVYYCARVPGYCKDTSCQDFYYYYGMDVWGQGSTVTVSS VL: not shown
6 | binds | binds | binds | anti-IL2RA antibody 13F9 (antibody, V domains shown) VH: QVQLVQSGAEVKRPGASVKVSCKASGYTFTTYAIHWVRQAPGQRLEWMGWINADNGYTKYSQNFQGRVTITRDTSASTAYMDLSTLRSEDTALYYCARTPRYCTSTSCSTGYYYYGMDVWGQGTTVTVSS VL: not shown
7 | binds | binds | binds | anti-IL2RA antibody 14C2 (antibody, V domains shown) VH: QVQLVQSGGGVVQPGRSLRLSCAASGFTFSTYGMHWVRQAPGKGLEWVAVISYDGSDKIYADSVKGRFTISRDNSKNTLFLQMNSLRAEDTAVYYCATGPMENYYYYNMDVWGLGTTVTVSS VL: not shown
